The target in this test is T1, CD22 on Raji cells (UniProt P20273 20-847, limits assumed).
T1 construct: whole, on cells
T1 sequence (looked up): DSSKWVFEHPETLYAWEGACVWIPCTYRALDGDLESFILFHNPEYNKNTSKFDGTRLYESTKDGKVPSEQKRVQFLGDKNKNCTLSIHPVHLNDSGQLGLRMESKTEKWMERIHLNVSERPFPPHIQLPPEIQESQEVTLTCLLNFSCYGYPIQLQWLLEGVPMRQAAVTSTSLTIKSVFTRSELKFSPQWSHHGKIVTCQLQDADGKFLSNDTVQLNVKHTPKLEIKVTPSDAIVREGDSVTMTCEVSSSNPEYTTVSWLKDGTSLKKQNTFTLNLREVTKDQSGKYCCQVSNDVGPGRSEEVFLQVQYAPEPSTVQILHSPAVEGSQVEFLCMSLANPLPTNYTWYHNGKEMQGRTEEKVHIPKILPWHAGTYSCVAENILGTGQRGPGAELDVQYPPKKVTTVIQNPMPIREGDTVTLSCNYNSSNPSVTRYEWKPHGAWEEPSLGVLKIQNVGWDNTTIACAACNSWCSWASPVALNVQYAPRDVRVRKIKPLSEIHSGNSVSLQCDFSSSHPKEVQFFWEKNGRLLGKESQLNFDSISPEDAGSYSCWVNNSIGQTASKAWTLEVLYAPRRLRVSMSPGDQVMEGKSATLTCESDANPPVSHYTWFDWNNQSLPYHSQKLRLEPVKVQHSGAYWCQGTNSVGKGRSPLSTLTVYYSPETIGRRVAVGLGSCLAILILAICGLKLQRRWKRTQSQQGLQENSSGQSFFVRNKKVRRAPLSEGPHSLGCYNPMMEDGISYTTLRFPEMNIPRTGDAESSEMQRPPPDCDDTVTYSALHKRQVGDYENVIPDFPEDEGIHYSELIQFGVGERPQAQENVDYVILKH
The test is described as follows: flow cytometry on Raji cells, 1 ug antibody, FITC goat anti-human IgG1 Fc detection.

Protocol: The mixtures were incubated for 30 minutes at 4° C. and washed three times with PBS to remove unbound antibodies. The binding levels of the antibodies to Raji cells were assessed by the addition of a 20x diluted FITC-labeled, goat anti-human IgG1, Fc fragment-specific antibodies (Jackson ImmunoResearch, West Grove, Pa.) in a final volume of 100 μl in PBS-FA, and incubating for 30 minutes at 4° C.

B1: FR-patched anti-CD22 antibody hpRFB4 (antibody, human IgG1, V domains shown)
VH: EVQLLESGGGLVQPGGSLRLSCAASGFSFSIYDMSWVRQAPGKGLEWVAYISSGGGTTYYPDTVKGRFTISRDNAKNSLYLQMNSLRVEDTALYYCARHSGYGSSYGVLFAYWGQGTLVTVSS
VL: DIQMTQSPSSLSASVGDRVTISCRASQDISNYLNWYQQKPGKAPKLLIYYTSILHSGVPSRFSGSGSGTEFTLTISSLQPEDFATYFCQQGNTLPWTFGGGTKVEIK
notes: Expressed in Sp2/0 cells with a human IgG1 heavy chain constant region and a human kappa light chain constant region (vectors hpRFB4pSMh and hpRFB4pSMk); protein A purified; also called FR-patched antibody; FR-patched RFB4
Take B1: the binding result is recorded as “binds”.

The values above are taken from US20030040606A1 (SKYTECH TECHNOLOGY, published 2003).
